# Source: US20140112915A1 (Novartis, published 2014)
# Where a chain is given by its changes, count along the chain named. Read-outs that look alike come from different tables or passages of the source.
# T1: Recombinant cynomolgus IL-18 (cynomolgus monkey, UniProt Q14116 37-193 (human entry))
# T1 construct: also called cm IL-18; Cyno IL-18
# T1 chain: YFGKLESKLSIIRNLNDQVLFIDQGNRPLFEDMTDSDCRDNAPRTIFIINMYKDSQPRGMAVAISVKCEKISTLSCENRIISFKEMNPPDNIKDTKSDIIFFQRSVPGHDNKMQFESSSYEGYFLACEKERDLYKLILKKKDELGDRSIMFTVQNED
# T2: Recombinant human IL-18 (human, UniProt Q14116 37-193)
# T2 construct: Used unlabeled or biotinylated depending on the assay step; also called Hu IL-18; hr IL-18
# T2 sequence: T1 chain with I11V, N50S, A63T, R79K, Y134F, K141E
# T3: Native human IL-18 (human, UniProt Q14116 37-193)
# T3 sequence: T1 chain with I11V, N50S, A63T, R79K, Y134F, K141E
# T4: IL-18/IL-18BP complex (human, UniProt O95998 31-194, biotinylated in the first ELISA setup, unbiotinylated in the second)
# T4 construct: also called biotinylated IL-18/IL18-BP complex; not shown: human IgG1 Fc tag
# T4 sequence 1: T1 chain with I11V, N50S, A63T, R79K, Y134F, K141E
# T4 sequence 2: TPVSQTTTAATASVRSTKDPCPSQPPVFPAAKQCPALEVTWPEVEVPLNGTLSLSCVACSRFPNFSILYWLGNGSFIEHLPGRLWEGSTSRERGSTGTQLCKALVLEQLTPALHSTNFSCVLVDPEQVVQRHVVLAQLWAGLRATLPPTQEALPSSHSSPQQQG
# B1: MOR13363 (antibody, human IgG1, kappa, L234A L235A, V domains shown)
# VH: QVQLLESGGGLVQPGGSLRLSCAASGFTFSSYAIHWVRQAPGKGLEWVSVISGEGSNTYYADSVKGRFTISRDNSKNTLYLQMNSLRAEDTAVYYCARVMIGYGFDYWGQGTLVTVSS
# VL: DIQMTQSPSSLSASVGDRVTITCRASQSIFNYLNWYQQKPGKAPKLLIYDSSTLQSGVPSRFSGSGSGTDFTLTISSLQPEDFATYYCLQYSGFLFTFGQGTKVEIKR
# B2: MOR13341 (antibody, human IgG1, kappa, L234A L235A, V domains shown)
# VH: QVQLVQSGAEVKKPGSSVKVSCKASGGTFSTFSISWVRQAPGQGLEWMGGIIPIFGTANYAQKFQGRVTITADESTSTAYMELSSLRSEDTAVYYCARGGYGGYYYFDYWGQGTLVTVSS
# VL: B1 VL with F30S, Y32R, D50K, S51G, L89Q, Y91H, S92K, G93V, F94W, F96T
# B3: MOR13361 (antibody, human IgG1, kappa, L234A L235A, V domains shown)
# VH: B1 VH with V50T, S52Q, G53S, E54S, S56E, T58K, Y59F
# VL: B1 VL with L89H, F94L
# B4: MOR09465 (antibody, human IgG1, lambda, L234A L235A, V domains shown)
# VH: EVQLVQSGAEVKKPGSSVKVSCKASGGTFNSYAISWVRQAPGQGLEWMGNIIPHYGFAYYAQKFQGRVTITADESTSTAYMELSSLRSEDTAVYYCARAAYHPLVFDNWGQGTLVTVSS
# VL: DIVLTQPPSVSGAPGQRVTISCSGSSSNIGNHYVNWYQQLPGTAPKLLIYRNNHRPSGVPDRFSGSKSGTSASLAITGLQSEDEADYYCQSWDYSGFSTVFGGGTKLTVLG
# notes: also called MOR9465
# B5: MOR9464_N30R (antibody, human IgG1, lambda, L234A L235A, V domains shown)
# VH: B4 VH with N30R, H54M, Y55T, F57Q, A58T
# VL: B4 VL
# B6: MOR9464_N30I (antibody, human IgG1, lambda, L234A L235A, V domains shown)
# VH: B4 VH with N30I, H54M, Y55T, F57Q, A58T
# VL: B4 VL
# B7: MOR9464_N30L (antibody, human IgG1, lambda, L234A L235A, V domains shown)
# VH: B4 VH with N30L, H54M, Y55T, F57Q, A58T
# VL: B4 VL
# B8: MOR9464_N30Y (antibody, human IgG1, lambda, L234A L235A, V domains shown)
# VH: B4 VH with N30Y, H54M, Y55T, F57Q, A58T
# VL: B4 VL
# B9: MOR9464_N30V (antibody, human IgG1, lambda, L234A L235A, V domains shown)
# VH: B4 VH with N30V, H54M, Y55T, F57Q, A58T
# VL: B4 VL
# B10: MOR09466 (antibody, human IgG1, lambda, L234A L235A, V domains shown)
# VH: B4 VH with H54Y, Y55S
# VL: B4 VL
# notes: also called MOR9466
# B11: MOR10222_E1Q_N30S_M54I (antibody, human IgG1, lambda, L234A L235A, V domains shown)
# VH: B4 VH with E1Q, N30S, H54I, Y55T, F57Q, A58T
# VL: B4 VL with D1Q, I2S, V10A, A13T, T77S
# B12: MOR10501 (antibody, human IgG1, lambda, L234A L235A, V domains shown)
# VH: EVQLQESGPGLVKPGETLSLTCTVSGGSISTGSYYWNWIRQAPGKGLEWIGEIWHSGPTFYNPSLKSRVTISVDTSKNQFSLKLSSVTAADTAVYYCARTTRYWMSHILAYGMDYWGQGTLVTVSS
# VL: DIVLTQPPSVSGAPGQRVTISCSGSSSNIGNHYVSWYQQLPGTAPKLLIYANTKRPSGVPDRFSGSKSGTSASLAITGLQSEDEADYYCSSYDGSQSIVFGGGTKLTVLG
# notes: also called MOR010501
# B13: MOR10497 (antibody, human IgG1, lambda, L234A L235A, V domains shown)
# VH: B12 VH with W54Q, H55S, S56P, P58Y
# VL: B12 VL
# notes: also called MOR010497
# B14: MOR10502 (antibody, human IgG1, lambda, L234A L235A, V domains shown)
# VH: B12 VH with W54H, H55G, S56H, P58F
# VL: B12 VL
# notes: also called MOR010502
# What was measured:
# [1] = biological target: T1, Recombinant cynomolgus IL-18; assay: solution equilibrium titration (SET), ECL detection; value in brackets = cynomolgus IL-18; bracketed value
# Procedure: (§1) Goat-anti-human (Fab)₂ fragment specific antibodies (Dianova) were labeled with MSD SULFO-TAG™ NHS-Ester (Meso Scale Discovery, Gaithersburg, Md., USA) according to the manufacturer's instructions. Experiments were carried out in polypropylene microtiter plates and phosphate-based assay buffer. Unlabeled human IL-18 was serially diluted, starting with a concentration at least 10 times higher than the expected KD. Wells without antigen were used to determine Bₘₐₓ values; wells with assay buffer were used to determine background. After addition of a constant amount of antibodies or fragment thereof (e.g. 10 pM final concentration in 60 μl final volume), the mixture was incubated over night at RT.
# (§2) Streptavidin MSD plates were blocked with BSA-containing phosphate buffer over night. After blocking of the plate, biotinylated human IL-18 was added and incubated for 1 h at RT. Subsequently the equilibrated samples were transferred to those plates and incubated for a short time at RT. After washing, MSD SULFO-TAG labeled detection antibody (goat anti-human (Fab)₂) was added to the MSD plate and incubated for a short time at RT.
# (§3) Where IL-18 from cynomolgus monkey (cm IL-18) was also tested, the resulting KD are indicated in brackets.
# Recombinant human IL-18 [2] = biological target: T2, Recombinant human IL-18; assay: solution equilibrium titration (SET), ECL detection; human IL-18; unbracketed value, column Hu IL-18
# Procedure: as §1, §2, §3
# Recombinant human IL-18 [3] = biological target: T2, Recombinant human IL-18; assay: cell-based or functional assay
# Native human IL-18 [4] = biological target: T3, Native human IL-18; assay: cell-based or functional assay
# Recombinant human IL-18 [5] = biological target: T2, Recombinant human IL-18; assay: cell-based or functional assay; remark: listed apart in the source
# Native human IL-18 [6] = biological target: T3, Native human IL-18; assay: cell-based or functional assay; remark: listed apart in the source
# [7] = biological target: T1, Recombinant cynomolgus IL-18; assay: cell-based or functional assay
# [8] = biological target: T1, Recombinant cynomolgus IL-18; assay: cell-based or functional assay
# IL-18/IL-18BP complex = biological target: T4, IL-18/IL-18BP complex; assay: ELISA, second set-up: unbiotinylated human IL-18/rhIL-18BP-Fc complex captured on Maxisorp plate through the Fc tag by goat anti-human IgG Fc, antibody titrated, AttoPhos fluorescence [B]
# Procedure: Plates were washed 5× with TBST, 20 μl AttoPhos (Roche) solution (1:5 diluted in ddH2O) were added and fluorescence was measured at the Tecan Reader.
# In a second setup, the experiment was done in a similar way, except for using unbiotinylated hu IL-18.
# Recombinant human IL-18 [9] = biological target: T2, Recombinant human IL-18; assay: solution equilibrium titration (SET), ECL detection
# Procedure: as §1, §2, §3
# Recombinant human IL-18 [10] = biological target: T2, Recombinant human IL-18; assay: cell-based or functional assay; remark: listed apart in the source
# Native human IL-18 [11] = biological target: T3, Native human IL-18; assay: cell-based or functional assay; remark: listed apart in the source
Binder,Kd [1] [nM],Kd (Recombinant human IL-18 [2]) [nM],"IC50, inhibition of IFN-γ release, human whole blood, recombinant human IL-18 (7 nM) (Recombinant human IL-18 [3]) [nM]","IC50, inhibition of IFN-γ release, human whole blood, LPS/IL-12 (native IL-18) (Native human IL-18 [4]) [nM]","IC50, inhibition of IFN-γ release, KG-1 cells, Hu IL-18 (0.5 nM) (Recombinant human IL-18 [5]) [nM]","IC50, inhibition of IFN-γ release, PBMC, Native IL-18 (LPS/IL-12) (Native human IL-18 [6]) [nM]","IC50, inhibition of IFN-γ release, KG-1 cells, Cyno IL-18 (0.2 nM) [7] [nM]","IC50, inhibition of IFN-γ production, cynomolgus whole blood, recombinant cynomolgus IL-18 (7 nM) [8] [nM]",binding result (IL-18/IL-18BP complex),"IC50, inhibition of IFN-γ release, KG-1 cells, Hu IL-18 (1 nM) (Recombinant human IL-18 [5]) [nM]","IC50, inhibition of IFN-γ release, PBMC, Hu IL-18 (recombinant) (Recombinant human IL-18 [5]) [nM]","IC50, inhibition of IFN-γ release, KG-1 cells, Cyno IL-18 [7] [nM]",Kd (Recombinant human IL-18 [9]) [nM],"IC50, inhibition of IFN-γ release, KG-1 cells, Hu IL-18 (1 nM) (Recombinant human IL-18 [10]) [nM]","IC50, inhibition of IFN-γ release, PBMC, Native IL-18 (LPS/IL-12) (Native human IL-18 [11]) [nM]"
B1,0.01,0.01,29.4,91.7,0.49,0.18,0.28,,,,,,,,
B2,0.03,0.003,5.6,19.6,0.13,0.8,2.8,,,,,,,,
B3,0.006,0.007,15.7,39.4,0.41,0.5,0.13,,,,,,,,
B4,,,4.2,19.4,,0.89,,55,no binding (tested: about 400 nM),0.3,0.6,1.8,0.006,,
B5,,,10.1,11,,,,,,,,,,0.47,0.04
B6,,,11.4,13.2,,,,,,,,,,0.32,0.11
B7,,,9.85,15.5,,,,,,,,,,0.23,0.05
B8,,,12.4,17.9,,,,,,,,,,0.23,0.03
B9,,,12.7,19.6,,,,,,,,,,0.29,0.11
B10,,,5.6,18.5,,2.1,,179,no binding (tested: about 400 nM),0.4,1.2,5.6,0.005,,
B11,0.03,0.003,47.3,9.3,,0.05,,,,4.21,,8.12,,4.2,0.05
B12,,,20.3,101,,1.3,,,,0.3,6.3,0.2,0.001,,
B13,,,16.1,108,,1.8,,,,0.3,5.8,0.3,0.002,,
B14,,,17.9,110,,2.3,,,,0.4,6.3,0.2,0.004,,
